Where a chain is given by its changes, count along the chain named.
T1: murine CD19 protein (murine, UniProt P25918 17-287, limits assumed)
T1 construct: bought protein; also called commercial murine CD19
T1 sequence (looked up): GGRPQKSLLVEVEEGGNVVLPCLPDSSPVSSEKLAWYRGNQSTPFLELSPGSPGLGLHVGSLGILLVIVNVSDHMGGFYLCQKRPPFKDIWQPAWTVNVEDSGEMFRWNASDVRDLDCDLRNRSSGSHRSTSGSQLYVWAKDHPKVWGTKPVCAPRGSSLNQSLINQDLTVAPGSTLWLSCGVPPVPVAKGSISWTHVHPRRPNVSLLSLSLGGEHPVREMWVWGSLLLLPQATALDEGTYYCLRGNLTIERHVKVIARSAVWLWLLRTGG

T2: human CD19 exon1-3-his protein (human, UniProt P15391 20-186, limits assumed)
T2 construct: made in HEK293E cells; also called membrane-distal end; not shown: His tag
T2 sequence (looked up): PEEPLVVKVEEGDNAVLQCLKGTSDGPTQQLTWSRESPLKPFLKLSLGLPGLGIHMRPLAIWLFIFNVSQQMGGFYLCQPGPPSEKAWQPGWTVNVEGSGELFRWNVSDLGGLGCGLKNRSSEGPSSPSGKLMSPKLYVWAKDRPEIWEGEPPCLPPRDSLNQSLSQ

T3: Human CD19-his protein (human, UniProt P15391 20-291)
T3 construct: bought protein; also called human CD19 protein; recombinant human CD19-His; not shown: His tag
T3 sequence (looked up): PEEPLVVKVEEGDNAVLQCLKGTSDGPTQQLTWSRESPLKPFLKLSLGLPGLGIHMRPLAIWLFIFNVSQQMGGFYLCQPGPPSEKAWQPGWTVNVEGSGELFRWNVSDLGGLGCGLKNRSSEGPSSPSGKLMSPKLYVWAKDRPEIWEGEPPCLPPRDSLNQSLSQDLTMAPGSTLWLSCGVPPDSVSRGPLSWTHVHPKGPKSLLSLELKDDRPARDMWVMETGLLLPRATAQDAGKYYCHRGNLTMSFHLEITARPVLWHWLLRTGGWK

B1: F2.15.26 (antibody, human IgG1, V domains shown)
VH: QVQLKESGPGLVAPSQSLSITCTVSGFSLTDYGVSWIRQSPGKGLEWLGVIWGSGDTYYNSVLESRLSINKDNSKNQVFLKMNSLQTDDAAMYFCAKHSYYGGSFAMDYWGQGTSVTVSS
VL: DIQMTQTTSSLSASLGDRVTISCRASQDISNYLNWYQQKPDGTVKLLIYYTSRLHSGVPSRFSGSGSGTDYSLTISNLEQEDIATYFCQQGKTLPWTFGGGTKLEIK
notes: human-murine chimeric antibody, human IgG1
B2: F4.18.13 (antibody, human IgG1, V domains shown)
VH: QVQLQQSGPELVKPGASVKISCKASGYAFSSFWMNWVKQRPGEGLEWIGRIYPGDGDTNYNGKFKGKATLTADDSSSTAYMQLSSLTSVDSAVYFCAREVIAAVVTTDFDYWGQGTTLTVSS
VL: B1 VL with A25T, Q37L, R53G, Q80P, W96Y
notes: as for B1
B3: F3.113.16 (antibody, human IgG1, V domains shown)
VH: QVQLQQPGAELVKPGASVKLSCKASGYTFTNYWMQWVKQRPGQGLEWIGEIDPSDSYINYNQKFKGKATLTADTSSSTAYMQLSSLTYEDSAVYYCARPVTVPWYFDVWGTGTTVTVSS
VL: EIVLTQSPTTMAASPGEKITITCSATSSISSNYLHWYQQKPGFSPKLLIYRTSNLASGVPARFSGSGSGTSYSLTIGTMEAEDVATYYCQQGSAIPRIFTFGSGTKLEIK
notes: as for B1
B4: F3.121.4 (antibody, human IgG1, V domains shown)
VH: QVQLQQPGAELVVPGTSVKLSCKASGYTFTNYWMHWVKQRPGQGLEWIGEIDPSDNYANYNQEFQGKATLTVDKSSSTAYMQLSSLTSDDSAVYYCARHDGYFGALDYWGQGTSVTVSS
VL: B3 VL with T26S, L47F, G92A, A94S, I98M
notes: human-murine chimeric antibody, human IgG1; also called chimeric antibody F3.121.4
B5: F3.133.14 (antibody, human IgG1, V domains shown)
VH: QVQLQQPGAELVMPGASVKLSCKASGYTFTNYWMHWVKQRPGQGLEWIGEIDPSDYYANYNQKFKGKATLTVDKSSSTAYMQLSSLTSEDSAVYYCARSHYYANSYNYWGQGTTLTVSS
VL: B3 VL with V3E, T26S, N32D, V59L, A94S, I95V, I98M, F99L, S103A, I109L
notes: as for B1
B6: F3.64.4 (antibody, human IgG1, V domains shown)
VH: EVQLQQSGPELVKPGASVKISCKASGYTFTDYHINWVKQSHGKSPEWIGDINPNNGGTTYNQKFKDKATLTVDKSSSTAFMELRSLTSEDSAVYYCARFITTVVAWYFDVWGTGTTVTVSS
VL: DIQMTQSPASLSVSVGETVTITCRASENIYSNLAWYQQKQGKSPQLLVYAATNLADGVPSRFSGSGSGTQYSLKINSLQSEDFGNYYCQRFWDTPRTFGGGTKLEIK
notes: as for B1

molecular target: T1, murine CD19 protein; assay: ELISA, coated murine CD19
Procedure, shortened: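 Plates coated overnight at 4° C with recombinant murine or monkey CD19 and blocked with 2% BSA. Chimeric antibodies, serially diluted from 100 nM, bound for 2 h at 37° C. TMB development for 10 min with OD450 read-out.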

binding result | Binder
no binding | B1
no binding | B2
no binding | B3
no binding | B4
no binding | B5
no binding | B6

molecular target: T2, human CD19 exon1-3-his protein; assay: ELISA, coated at 2 ug/mL

binding result | Binder
no binding | B1
no binding | B2
no binding | B3
no binding | B4
no binding | B5
no binding | B6

molecular target: T3, Human CD19-his protein; assay: ELISA, antibody at 0.0001 nM

OD450 | Binder
0.05 | B1
0.05 | B2
0.05 | B3
0.05 | B4
0.05 | B5
0.05 | B6

molecular target: T3, Human CD19-his protein; assay: ELISA, antibody at 10 nM

OD450 | Binder
1.4 | B1
1.96 | B2
0.34 | B3
1.04 | B4
1.87 | B5
1 | B6

molecular target: T3, Human CD19-his protein; assay: ELISA on coated human CD19-His

EC50 (read off the curve) | Binder
~0.09 nM | B1
~0.05 nM | B2
~0.5 nM | B3
~0.1 nM | B4
~0.2 nM | B5
~0.1 nM | B6

molecular target: T3, Human CD19-his protein; assay: ELISA, antibody at 0.001 nM

OD450 | Binder
0.07 | B1
0.08 | B2
0.05 | B3
0.06 | B4
0.07 | B5
0.06 | B6

molecular target: T3, Human CD19-his protein; assay: ELISA, antibody at 100 nM

OD450 | Binder
1.54 | B1
1.69 | B2
0.38 | B3
0.82 | B4
1.62 | B5
0.83 | B6

molecular target: T3, Human CD19-his protein; assay: ELISA, antibody at 1.00 nM

OD450 | Binder
1.3 | B1
2.01 | B2
0.26 | B3
0.88 | B4
1.59 | B5
1.06 | B6

molecular target: T3, Human CD19-his protein; assay: ELISA, antibody at 0.01 nM

OD450 | Binder
0.18 | B1
0.25 | B2
0.06 | B3
0.11 | B4
0.12 | B5
0.13 | B6

molecular target: T3, Human CD19-his protein; assay: ELISA, antibody at 0.10 nM

OD450 | Binder
0.8 | B1
1.32 | B2
0.11 | B3
0.5 | B4
0.58 | B5
0.55 | B6

From patent US20250042994A1 (HAINAN SIMCERE ZAIMING PHARMACEUTICAL, published 2025)
